Test system: beta-Gal^PR, engineered E. coli beta-galactosidase with the HIV p6/PR cleavage site decapeptide inse [β-galactosidase: P00722]

“TF-PR^D25N, HIV protease precursor with the D25N mutation at the catalytic residue Asp25” gave a β-galactosidase activity of 0.178 µmol/min/mg.
